B1: D417C ClC-ec1 (cysteine-less C85A/C302A/C347S background, called the "WT background") (natural protein, E. coli)
chain: MKTDTPSLETPQAARLRRRQLIRQLLERDKTPLAILFMAAVVGTLVGLAAVAFDKGVAWLQNQRMGALVHTADNYPLLLTVAFLASAVLAMFGYFLVRKYAPEAGGSGIPEIEGALEDQRPVRWWRVLPVKFFGGLGTLGGGMVLGREGPTVQIGGNIGRMVLDIFRLKGDEARHTLLATGAAAGLAAAFNAPLAGILFIIEEMRPQFRYTLISIKAVFIGVIMSTIMYRIFNHEVALIDVGKLSDAPLNTLWLYLILGIIFGIFGPIFNKWVLGMQDLLHRVHGGNITKWVLMGGAIGGLAGLLGFVAPATSGGGFNLIPIATAGNFSMGMLVFIFVARVITTLLSFSSGAPGGIFAPMLALGTVLGTAFGMVAVELFPQYHLEAGTFAIAGMGALLAASIRAPLTGIILVLEMTCNYQLILPMIITGLGATLLAQFTGGKPLYSAILARTLAKQEAEQLARSK
notes: ClC-ec1, prokaryotic CLC Cl-/H+ exchange transporter, homodimer; D417C in the cysteine-less background C85A/C302A/C347S; E. coli is named only in the keywords; also called D417C/WT; source: expressed and purified as in Accardi and Miller, 2004, final step Superdex 200 size exclusion
B2: D417C/A404L ClC-ec1 (cysteine-less background) (natural protein, E. coli)
chain: B1 chain with A404L
notes: ClC-ec1; D417C with A404L in the cysteine-less background C85A/C302A/C347S; source: expressed and purified as in Accardi and Miller, 2004, final step Superdex 200 size exclusion
B3: Y419C ClC-ec1 (WT ClC-ec1 background) (natural protein, E. coli)
chain: B1 chain with A85C, A302C, S347C, C417D, Y419C
notes: ClC-ec1, prokaryotic CLC Cl-/H+ exchange transporter, homodimer; Y419C in the WT (native cysteines kept) background; source: expressed and purified as in Accardi and Miller, 2004, final step Superdex 200 size exclusion
B4: D417C/L361A ClC-ec1 (cysteine-less background) (natural protein, E. coli)
chain: B1 chain with L361A
notes: ClC-ec1; D417C with the Helix-N mutation L361A in the cysteine-less background C85A/C302A/C347S; also called L361A (Helix N); source: expressed and purified as in Accardi and Miller, 2004, final step Superdex 200 size exclusion
B5: D417C/F357A ClC-ec1 (cysteine-less background) (natural protein, E. coli)
chain: B1 chain with F357A
notes: ClC-ec1; D417C with the Helix-N mutation F357A in the cysteine-less background C85A/C302A/C347S; also called F357A (Helix N); source: expressed and purified as in Accardi and Miller, 2004, final step Superdex 200 size exclusion
B6: D417C/E148A ClC-ec1 (cysteine-less background) (natural protein, E. coli)
chain: B1 chain with E148A
notes: ClC-ec1; D417C with E148A in the cysteine-less background C85A/C302A/C347S; also called D417C in the E148A mutant background; source: expressed and purified as in Accardi and Miller, 2004, final step Superdex 200 size exclusion

Where a chain is given by its changes, count along the chain named. Numbers in names are those of the source.

The first data set concerns the molecule itself. Kind of data set: SEC; Superdex 200 gel filtration, before and after treatment with CuP. Background: Size exclusion chromatography separates by hydrodynamic size, large species first.
The term stoichiometry N denotes a count of units in the complex or per binding partner. As for B1, the “stoichiometry N” value is 2.

A further data set deals with the molecule itself. Kind of data set: cross-linking; inter-subunit disulfide between introduced cysteines, spontaneous (purified without reductant) or induced with copper-phenanthroline (CuP) for 1 h at room temperature, 0.2 mg/mL protein in Buffer A (150 mM NaCl, 10 mM HEPES pH 7.5, 5 mM DM); non-reducing SDS-PAGE, Coomassie, monomer and dimer bands quantified.
For the protein B2, the binding result is “binds”. B3: the binding result is recorded as “binds”. Still for that read-out and setting: the value for B4 was “binds”. On to B5, for which the binding result is reported as “binds”.

In the case of B6, the binding result is “binds”.

These data come from PMC4769167 (eLife, 2016).
